According to patent US20120177639A1 (Sanofi, published 2012):

T1: fibrils of IAPP (UniProt P10997 34-70)
T1 construct: Insoluble fibrils formed by 72 h at 37 °C; also called Islet Amyloid Polypeptide
T1 peptide (looked up): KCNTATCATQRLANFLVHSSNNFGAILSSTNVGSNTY

B1: peptide Aβ1-16 (peptide, UniProt P05067 672-687, looked up)
peptide: DAEFRHDSGYEVHHQK
notes: range 1-16
B2: peptide Aβ25-35 (peptide, UniProt P05067 696-706, looked up)
peptide: GSNKGAIIGLM
notes: range 25-35
B3: humanized anti-peptide Aβ antibody VH1VL1 (LP09027) (antibody, human IgG4 S228P, kappa, V domains shown)
VH: EVQLQQSGPEVVKPGVSVKISCKGSGYTFTDYAMHWVKQSPGKSLEWIGVISTKYGKTNYNPSFQGQATMTVDKSSSTAYMELASLKASDSAIYYCARGDDGYSWGQGTSVTVSS
VL: EIVMTQTPLSLPVSLGDRASISCRSGQSLVHSNGNTYLHWYLQKPGQSPKLLIYTVSNRFSGVPDRFSGSGSGSDFTLTISRVEAEDLGVYFCSQNTFVPWTFGGGTKLEIKR
notes: Humanized from murine antibody 13C3; Made in FreeStyle 293-F cells; hetero-tetramer of 150 kDa; also called 13C3-VH1VL1; Antibody 1 VH1VL1

Tests used:
[1] = molecular target: B3; test: competitive ELISA, antibody 0.02 µg/ml pre-incubated with the peptide, free antibody read on coated Aβ1-42
Protocol: The antibody/antigen mixture is then deposited in each well and the microtitration plate is incubated for 1 h at room temperature. The free, uncomplexed antibody is determined according to the same ELISA protocol as described previously.

[2] = molecular target: T1, fibrils of IAPP; test: ELISA on coated fibrils (IAPP at 0.5 µg/ml)
Protocol: 50 μl of fibrils of Aβ1-42 at 1 μg/ml and IAPP at 0.5 μg/ml are deposited in each well of a microtitration plate. The ELISA protocol is applied using serial dilutions of the humanized antibody starting from 10 μg/ml.

| Binder | binding result [1] | binding result [2] |
| --- | --- | --- |
| B1 | no binding | – |
| B2 | no binding | – |
| B3 | – | no binding |
